{
  "source": "patent US20210238279A1",
  "about": "(Johns Hopkins, published 2021)",
  "binders": {"B1": {"name": "mAb20 (antibody, V domains shown)", "VH": "QIQLVQSGPELKKPGETVKISCKASGYIFTNYPMHWVKQAPGKGLKWMGWINTYSGVPTHADDFKGRFAFSLETSANSAFLQINNLKNEDTATYFCTRSRITPTGGYAMDYWGQGTSVTVSS", "VL": "DVVMTQTPLSLPVSLGDQASISCRSSQSLVHSNGNTYLHWYLQKPGQSPNLLISKVSNRFSGVPERFSGSGSGTDFTLKISRVEAEDLGVYFCSQNTHVPWTFGGGTKLEIKR", "notes": "Mouse hybridoma mAb purified on protein A/G; In some assays it was labelled with Alexa Fluor 488 or terbium cryptate; also called monoclonal antibody mAb20; anti-ZnT8 mAb20"}, "B2": {"name": "mAb39 (antibody, V domains shown)", "VH": "QVQLQQPGAELVKPGASVKLSCKASGYSFTTYWMHWVKQRPGQGLEWVGDINPRNGRTNYNEKSKSKATLTVDISSSTVYMQVSSLTSEDSAVYYCAIWSGAMDYWGPGTSVTVSS", "VL": "B1 VL with A19P, R24K, S32N, N50K, S54Y, E65D, N96T, W101P", "notes": "Mouse hybridoma mAb purified on protein A/G; In some assays it was labelled with Alexa Fluor 555 or d2; also called monoclonal antibody mAb39; anti-ZnT8 mAb39"}},
  "key": {"[1]": {"target": "T1, human ZnT8-His (human, UniProt Q8IWU4-2 1-320, limits assumed)", "T1 construct": "Over-expressed in HEK293 cells, solubilized with DDM and immobilized on Ni-NTA plates (native or unfolded with 2% SDS), or SDS-denatured on immunoblots; also called human ZnT8 with C-terminal poly-histidine tag; not shown: C-terminal poly-histidine tag", "T1 sequence (looked up)": "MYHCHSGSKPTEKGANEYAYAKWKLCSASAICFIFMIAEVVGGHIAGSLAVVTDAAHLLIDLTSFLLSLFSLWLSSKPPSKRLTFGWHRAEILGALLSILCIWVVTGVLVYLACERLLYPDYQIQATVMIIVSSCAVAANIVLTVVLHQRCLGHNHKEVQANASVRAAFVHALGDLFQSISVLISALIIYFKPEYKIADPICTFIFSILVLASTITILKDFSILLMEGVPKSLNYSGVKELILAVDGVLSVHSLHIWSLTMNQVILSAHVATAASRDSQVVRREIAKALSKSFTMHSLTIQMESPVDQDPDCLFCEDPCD", "experiment": "ELISA titration on ZnT8-His immobilized on Ni-NTA plate; apparent binding affinity, one-component fit; DDM-solubilized human ZnT8 immobilized to Ni-NTA plate via His-tag; mAb titration", "excerpt": "(§1) FIG. 7A-7D. mAb binding specificities (FIG. 7A) mAb binding to ZnT8-His immobilized to Ni-NTA plate. Bound mAb20 (red) or mAb39 (magenta) was detected by an HRP-conjugated secondary antibody. Solid lines are least-squares fits of binding datapoints to a one-component binding process. Error bars are standard errors (n=8). (FIG. 7B) SDS-denatured mouse ZnT8-His (labeled as M) and human ZnT8-His (labeled as H) on immunoblots were detected by mAb20 or mAb39 as indicated. […] (FIG. 7C) Detection of endogenous human ZnT8 in EndoC-βH cells by mAb20 or […] immunoblotting. An equal amount of EndoC-βH lysate (5 μg total protein) was loaded to each lane. (FIG. 7D) Immunoblotting of HEK lysates with or with over-expression of a ZnT homolog as indicated. An approximately equal amount of total lysate protein (5 μg) was located to each lane, probed by either mAb20, mAb39, or anti-FALG antibody as indicated. FIG. 8. HTRF response to human ZnT8, mouse ZnT8 and human ZnT3.\n(§2) Binding specificities. […] Of note, the epitope-masking effect of ZnT8 immobilization weakened the apparent binding affinities of both mAbs as compared to the affinities determined by flow-cytometry, and such a weakening effect was more pronounced for mAb39, probably due to a closer proximity of the mAb39 epitope to the C-terminal His-tag. Next, we compared the immunoreactivities of mAbs to denatured ZnT8."}, "[2]": {"target": "T2, human ZnT8 over-expressed in HEK293 cells (human, UniProt Q8IWU4 1-369)", "T2 construct": "whole, on cells; Cells were fixed and permeabilized for immunofluorescence and flow cytometry (intracellular staining); The same id is used for the detergent lysates of over-expressing cells in the HTRF assay; also called ZnT8(+) HEK293 cells; HEK293 cells stably expressing human ZnT8", "T2 sequence (looked up)": "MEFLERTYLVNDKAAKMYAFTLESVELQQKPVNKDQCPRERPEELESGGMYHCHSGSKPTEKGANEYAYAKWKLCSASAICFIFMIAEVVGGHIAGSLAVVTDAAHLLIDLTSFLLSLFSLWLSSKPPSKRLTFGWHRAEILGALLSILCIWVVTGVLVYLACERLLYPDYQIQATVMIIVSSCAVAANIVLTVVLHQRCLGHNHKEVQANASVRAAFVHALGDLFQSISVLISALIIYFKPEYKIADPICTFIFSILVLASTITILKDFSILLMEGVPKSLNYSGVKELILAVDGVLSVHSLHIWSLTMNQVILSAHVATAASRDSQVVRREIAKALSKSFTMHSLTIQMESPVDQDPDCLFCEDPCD", "experiment": "flow cytometry, serial mAb dilutions on fixed, permeabilized HEK293 cells stably expressing human ZnT8; one-component fit", "excerpt": "(§3) FIG. 6A-6C. mAb binding affinity. (FIG. 6A) Representative confocal microscopy images of immunofluorescence staining of fixed and saponin-permeabilized HEK293 cells with mAb20 or mAb39 staining as indicated. ZnT8(+) or ZnT8(−) denotes HEK293 cells w/o ZnT8 over-expression. Red: mAb20 or mAb39 staining, blue: DAPI, scale bar: 5 um. (FIG. 6B) Histograms of flow cytometry counting events. Arrows indicate leftward shifts of the histogram as a result of mAb serial dilutions. (FIG. 6C) mAb binding to HEK293 cells w/o ZnT8 overexpression as indicated. Immunofluorescence intensities of mAb20 or mAb39 labeling in serial dilutions were obtained from (FIG. 6B). Solid lines are least-squares fits of the binding data to a one-component binding process.\n(§4) Flow cytometry analysis. HEK293 cells w/o ZnT8 over-expression were fixed, permeabilized, and resuspended in PBS plus 5% BSA at a density of 1×10⁶/ml as described previously (43). Aliquots of 100 μl cell suspension were stained with mAb20 or mAb39 in 3-fold serial dilutions for 2 hours at RT, and then stained with Alexa fluor 647-conjugated donkey-anti-mouse secondary antibody in 1:1000 dilution with 5% BSA (Thermo Fisher Scientific, cat. #A31571). The labeled cells were analyzed immediately by flow cytometry. […]\n(§5) Binding affinity. […] No mAb staining was detected in parental HEK293 cells without ZnT8 over-expression. […]"}, "[3]": {"target": "T2, human ZnT8 over-expressed in HEK293 …", "experiment": "flow cytometry of fixed and permeabilized HEK293 cells, mean fluorescence against antibody concentration", "excerpt": "as §3, §4, §5"}, "[4]": {"target": "T1, human ZnT8-His", "experiment": "ELISA, ZnT8-His on Ni-NTA plate, HRP-conjugated secondary antibody; curve taken as human by paragraph 166", "excerpt": "as §1, §2"}},
  "note": "Numbering of substitutions follows the chain as printed.",
  "data": [
    {"binder": "B1", "values": [
      {"measurement": "Kd", "setting": "[1]", "value": 2.5, "unit": "nM"},
      {"measurement": "Kd", "setting": "[2]", "value": 0.8, "unit": "nM"},
      {"measurement": "EC50 (read off the curve)", "setting": "[3]", "value": "~0.1", "unit": "µg/mL"},
      {"measurement": "EC50 (read off the curve)", "setting": "[4]", "value": "~3", "unit": "nM"}
    ]},
    {"binder": "B2", "values": [
      {"measurement": "Kd", "setting": "[1]", "value": 17.6, "unit": "nM"},
      {"measurement": "Kd", "setting": "[2]", "value": 0.7, "unit": "nM"},
      {"measurement": "EC50 (read off the curve)", "setting": "[3]", "value": "~0.1", "unit": "µg/mL"}
    ]}
  ]
}
